Laboratory results: patent EP4782465A1 (Shanghai Mabgen Biotech Ltd., dated 2026)

Biological target: Insulin receptor of C2C12 mouse myoblasts (mouse, UniProt P15208 28-1372)
Assay: cell-based or functional assay

Chain of Insulin receptor of C2C12 mouse myoblasts (P15208 28-1372): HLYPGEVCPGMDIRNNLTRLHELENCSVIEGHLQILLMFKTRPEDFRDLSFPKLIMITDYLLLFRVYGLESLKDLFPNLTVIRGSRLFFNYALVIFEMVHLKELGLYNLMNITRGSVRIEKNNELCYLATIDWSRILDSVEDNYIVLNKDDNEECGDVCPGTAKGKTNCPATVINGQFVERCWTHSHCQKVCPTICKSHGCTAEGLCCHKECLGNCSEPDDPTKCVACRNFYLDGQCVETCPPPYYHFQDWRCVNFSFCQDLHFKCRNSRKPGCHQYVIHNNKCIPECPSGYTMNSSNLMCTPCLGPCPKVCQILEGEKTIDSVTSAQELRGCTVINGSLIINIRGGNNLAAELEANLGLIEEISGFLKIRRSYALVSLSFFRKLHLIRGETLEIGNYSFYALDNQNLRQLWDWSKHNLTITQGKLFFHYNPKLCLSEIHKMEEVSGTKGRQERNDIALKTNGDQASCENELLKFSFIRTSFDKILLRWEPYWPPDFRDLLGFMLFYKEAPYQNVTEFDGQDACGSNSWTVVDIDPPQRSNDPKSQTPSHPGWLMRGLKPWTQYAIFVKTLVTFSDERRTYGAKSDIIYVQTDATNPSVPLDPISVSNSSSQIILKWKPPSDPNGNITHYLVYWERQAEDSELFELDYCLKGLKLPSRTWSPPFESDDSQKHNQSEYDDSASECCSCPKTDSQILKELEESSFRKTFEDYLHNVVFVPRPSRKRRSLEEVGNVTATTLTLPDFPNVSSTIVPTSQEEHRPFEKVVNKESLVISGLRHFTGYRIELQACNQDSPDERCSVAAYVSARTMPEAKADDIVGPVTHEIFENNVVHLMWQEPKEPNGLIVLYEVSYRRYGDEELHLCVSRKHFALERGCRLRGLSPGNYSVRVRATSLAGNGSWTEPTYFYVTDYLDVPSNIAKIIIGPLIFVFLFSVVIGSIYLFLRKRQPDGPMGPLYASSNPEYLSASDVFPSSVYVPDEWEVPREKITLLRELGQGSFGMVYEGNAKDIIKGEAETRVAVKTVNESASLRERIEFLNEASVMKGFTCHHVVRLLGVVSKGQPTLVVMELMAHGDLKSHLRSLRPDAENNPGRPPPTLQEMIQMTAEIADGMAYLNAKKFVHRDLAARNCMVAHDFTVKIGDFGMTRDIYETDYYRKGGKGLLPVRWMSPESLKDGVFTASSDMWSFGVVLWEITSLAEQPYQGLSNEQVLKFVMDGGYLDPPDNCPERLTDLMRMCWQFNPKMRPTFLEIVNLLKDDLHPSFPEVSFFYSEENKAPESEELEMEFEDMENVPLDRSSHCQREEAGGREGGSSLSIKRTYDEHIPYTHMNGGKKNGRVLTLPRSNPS

AKT phosphorylation activity (EC50): 490 nM
B1: Fusion protein 1 (insulin analog 1 + L2 + IgG2 Fc1) (Fc fusion)
chain: FVNQHLCGEHLVEALYLVCGERGFHYGGGGGGSGGGGGIVEQCCESICSLEQLENYCGGGGGQGGGGQGGGGQGGGGGECPPCPAPPVAGPSVFLFPPKPKDTLMISRTPEVTCVVVDVSHEDPEVQFNWYVDGVEVHNAKTKPREEQFNSTFRVVSVLTVVHQDWLNGKEYKCKVSNKGLPAPIEKTISKTKGQPREPQVYTLPPSREEMTKNQVSLTCLVKGFYPSDIAVEWESNGQPENNYKTTPPMLDSDGSFFLYSKLTVDKSRWQQGNVFSCSVMHEALHNHYTQKSLSLSPG
